Experimental data: patent publication US20230075753A1 (UCB, published 2023)
Numbering of substitutions follows the chain as printed. Names and notes keep the numbering of the source. Values joined by “and” are separate entries in the source; they are usually repeats but may differ in a detail not shown here. Identical values can stand only once.

T1: Active cyno KLK5 (cynomolgus monkey, UniProt Q9Y337 67-293 (human entry))
T1 chain: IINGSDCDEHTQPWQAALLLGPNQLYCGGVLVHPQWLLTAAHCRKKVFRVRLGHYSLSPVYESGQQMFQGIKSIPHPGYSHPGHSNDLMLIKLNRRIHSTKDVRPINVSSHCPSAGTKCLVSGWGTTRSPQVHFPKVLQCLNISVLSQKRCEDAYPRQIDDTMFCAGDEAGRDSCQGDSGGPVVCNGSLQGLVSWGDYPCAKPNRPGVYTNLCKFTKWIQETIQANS

B1: Humanized antibody 10236 gL6 gH9 (antibody, V domains shown)
VH: EVQLQESGPGLVKPSGTLSLTCAVSGFPLSNYAMSWVRQPPGKGLEWIGDIYPSDIIDYASWAKGRVTISQDSSKTQVSLKLSSVTAADTAVYYCARDNNDYGLDIWGQGTLVTVSS
VL: AYDMTQSPSSLSASVGDRVTITCQASQSISSWLAWYQQKPGKAPKLLIYLASTLASGVPSRFSGSGSGTDFTLTISSLQPEDFATYYCQQGYTNSNIINTFGGGTKVEIKR
notes: Tested as IgG from supernatant captured by anti-human Fc
B2: Humanized antibody 10236 gL5 gH12 (antibody, V domains shown)
VH: B1 VH with T76N
VL: B1 VL with S63K
notes: as for B1
B3: Humanized antibody 10236 gL5 gH9 (antibody, V domains shown)
VH: B1 VH
VL: B1 VL with S63K
notes: as for B1
B4: Humanized antibody 10236 gL5 gH11 (antibody, V domains shown)
VH: B1 VH with S73K
VL: B1 VL with S63K
notes: as for B1
B5: Humanized antibody 10236 gL6 gH10 (antibody, V domains shown)
VH: B1 VH with Q71V
VL: B1 VL
notes: as for B1
B6: Humanized antibody 10236 gL6 gH11 (antibody, V domains shown)
VH: B1 VH with S73K
VL: B1 VL
notes: as for B1
B7: Humanized antibody 10236 gL6 Q24K gH12 (antibody, V domains shown)
VH: B1 VH with T76N
VL: B1 VL with Q24K
B8: Humanized antibody 10236 gL5 gH10 (antibody, V domains shown)
VH: B1 VH with Q71V
VL: B1 VL with S63K
notes: as for B1
B9: Humanized antibody 10236 gL6 Q24R gH12 (antibody, V domains shown)
VH: B1 VH with T76N
VL: B1 VL with Q24R
B10: Antibody 10236 gL6-N94DgH12 (IgG4P) (antibody, V domains shown)
VH: B1 VH with T76N
VL: B1 VL with N94D
notes: surrogate for the fully deamidated product of 10236gL6gH12
B11: Humanized antibody 10236 gL6gH12 (antibody, V domains shown)
VH: B1 VH with T76N
VL: B1 VL
notes: also called Ab10236gL6gH12
B12: Rabbit antibody 10236 (rabbit IgG) (antibody, V domains shown)
VL: AYDMTQTPASVEVAVGGTVTIKCQASQSISSWLAWYQQKPGQPPKLLIYLASTLASGVSSRFKGSGSGTQFTLTISGVECADAATYYCQQGYTNSNIINTFGGGTEVVVK
VH: QSVEESGGRLVTPGTPLTLTCTVSGFPLSNYAMSWVRQAPGKGLEWIGDIYPSDIIDYASWAKGRFTISQTSTTVELKITGPTTEDTATYFCARDNNDYGLDIWGPGTLVTVSS
B13: Rabbit/human antibody 10236 (chimera) (antibody, human IgG4 S228P, kappa)
light: AYDMTQTPASVEVAVGGTVTIKCQASQSISSWLAWYQQKPGQPPKLLIYLASTLASGVSSRFKGSGSGTQFTLTISGVECADAATYYCQQGYTNSNIINTFGGGTEVVVKRTVAAPSVFIFPPSDEQLKSGTASVVCLLNNFYPREAKVQWKVDNALQSGNSQESVTEQDSKDCTYSLSSTLTLSKADYEKHKVYACEVTHQGLSSPVTKSFNRGEC
heavy: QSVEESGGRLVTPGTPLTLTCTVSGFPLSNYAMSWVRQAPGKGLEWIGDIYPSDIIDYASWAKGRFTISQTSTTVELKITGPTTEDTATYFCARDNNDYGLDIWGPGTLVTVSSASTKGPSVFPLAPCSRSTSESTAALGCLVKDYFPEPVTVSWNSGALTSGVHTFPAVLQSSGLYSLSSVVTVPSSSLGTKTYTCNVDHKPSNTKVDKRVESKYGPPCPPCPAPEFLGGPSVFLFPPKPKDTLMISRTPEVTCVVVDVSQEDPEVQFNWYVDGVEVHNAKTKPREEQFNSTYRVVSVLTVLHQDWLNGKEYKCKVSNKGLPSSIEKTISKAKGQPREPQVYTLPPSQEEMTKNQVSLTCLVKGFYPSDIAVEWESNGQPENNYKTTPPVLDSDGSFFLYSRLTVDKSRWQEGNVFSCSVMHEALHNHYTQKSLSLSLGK
notes: also called rabbit/human chimera antibody
B14: Rabbit antibody 10273 mIgG (rabbit variable regions on mouse constant regions) (antibody, V domains shown)
VH: QSVEESGGRLVTPGTPLTLTCTVSGFSLSSYGMSWVRQAPGKGLEWIGIISSSGSTYYASWAKGRFTISKTSTTVDLKIASPTTEDTATYFCARDHIYRYDDYGDYPTYYGMDPWGPGTLVTVSS
VL: AVVLTQTPSPMSAAVGGTVTISCQSSQSVYNNNDLAWYQQKPGQPPKLLIYRASTLASGVPSRFSGSGSGTQFTLTISGVQCDDAATYYCLGGYDDDVDTYTFGGGTEVVVKR
B15: Rabbit antibody 10236 mIgG (rabbit variable regions on mouse constant regions) (antibody)
light: AYDMTQTPASVEVAVGGTVTIKCQASQSISSWLAWYQQKPGQPPKLLIYLASTLASGVSSRFKGSGSGTQFTLTISGVECADAATYYCQQGYTNSNIINTFGGGTEVVVKRTDAAPTVSIFPPSSEQLTSGGASVVCFLNNFYPKDINVKWKIDGSERQNGVLNSWTDQDSKDCTYSMSSTLTLTKDEYERHNSYTCEATHKTSTSPIVKSFNRNEC
heavy: QSVEESGGRLVTPGTPLTLTCTVSGFPLSNYAMSWVRQAPGKGLEWIGDIYPSDIIDYASWAKGRFTISQTSTTVELKITGPTTEDTATYFCARDNNDYGLDIWGPGTLVTVSSAKTTPPSVYPLAPGSAAQTNSMVTLGCLVKGYFPEPVTVTWNSGSLSSGVHTFPAVLQSDLYTLSSSVTVPSSTWPSETVTCNVAHPASSTKVDKKIVPRDCGCKPCICTVPEVSSVFIFPPKPKDVLTITLTPKVTCVVVDISKDDPEVQFSWFVDDVEVHTAQTQPREEQFNSTFRSVSELPIMHQDWLNGKEFKCRVNSAAFPAPIEKTISKTKGRPKAPQVYTIPPPKEQMAKDKVSLTCMITDFFPEDITVEWQWNGQPAENYKNTQPIMDTDGSYFVYSKLNVQKSNWEAGNTFTCSVLHEGLHNHHTEKSLSHSPGK

What was measured:
Active human KLK5 [1] = target: T2, Active human KLK5 (human, UniProt Q9Y337 67-293); experiment: SPR, Biacore T200, 25 C; IgG from supernatant captured on anti-human Fc, human KLK5 as analyte (20-0.08 nM), 1:1 model
T2 construct: glycosylated; also called Hu KLK5; KLK5 analyte (prepared in house)
Experimental: (§1) A goat anti-human IgG Fc specific antibody (Jackson ImmunoResearch) was immobilized on a CM5 Sensor Chip via amine coupling chemistry to a level of approximately 6000RU. Each analysis cycle consisted of capture of the anti-KLK5 IgG from supernatants to the anti Fc surface, injection of KLK5 analyte (prepared in house) for 180 s at 30 μl/min followed by 600 s dissociation. At the end of each cycle the surface was regenerated at a flowrate of 10 μL/min using a 60 s injection of 50 mM HCl followed by a 30 s injection of 5 mM NaOH and a final 60 s injection of 50 mM HCl. Human KLK5 was titrated from 20 nM to 0.08 nM (5×3-fold serial dilutions) for the supernatant in HBS-EP+ running buffer (GE Healthcare®) supplemented to a final concentration of 300 mM NaCl. Buffer blank injections were included to subtract instrument noise and drift. Kinetic parameters were determined using a 1:1 binding model using Biacore T200 Evaluation software (version 3.0). Experiments were carried out at 25° C.

Active human KLK5 [2] = target: T2, Active human KLK5; experiment: SPR, Biacore T200, 25 C; reference 10236gL6gH12
Experimental: (§2) A goat anti-human IgG Fc specific antibody (Jackson ImmunoResearch) was immobilized on a CM5 Sensor Chip via amine coupling chemistry to a level of approximately 6000RU. Each analysis cycle consisted of capture of the anti-KLK5 IgG molecules to the anti Fc surface, injection of KLK5 analyte (prepared in house) for 300 s at 30 μl/min followed by 600 s dissociation. At the end of each cycle the surface was regenerated at a flowrate of 10 μL/min using a 60 s injection of 50 mM HCl followed by a 30 s injection of 5 mM NaOH and a final 60 s injection of 50 mM HCl. Human KLK5 was titrated from 20 nM to 0.03 nM (6×3-fold serial dilutions) in HBS-EP+ running buffer (GE Healthcare) supplemented to a final concentration of 300 mM NaCl. Buffer blank injections were included to subtract instrument noise and drift. Kinetic parameters were determined using a 1:1 binding model using Biacore T200 Evaluation software (version 3.0).

Active human KLK5 [3] = target: T2, Active human KLK5; experiment: SPR, Biacore T200, 25 C; IgG captured on anti-human Fc, human KLK5 as analyte (20-0.03 nM), 1:1 model
Experimental: The kinetics of binding of both antibodies 10236gL6gH12 and 10236gL6-N94DgH12 to human KLK5 were assessed by surface plasmon resonance (Biacore T200, GE Life Sciences™) at 25° C. to assess the impact of 100% deamidation.
as §2

Active cyno KLK5 [4] = target: T1, Active cyno KLK5; experiment: cell-based or functional assay
Active human KLK5 [5] = target: T2, Active human KLK5; experiment: SPR; average of the 2 runs of Table 15
Active human KLK5 [6] = target: T2, Active human KLK5; experiment: cell-based or functional assay
Active cyno KLK5 [7] = target: T1, Active cyno KLK5; experiment: cell-based or functional assay
Active human KLK5 [8] = target: T2, Active human KLK5; experiment: SPR, Biacore T200, 25 C; IgG from supernatant captured on anti-human Fc, human KLK5 as analyte (20-0.08 nM), 1:1 model; run at the start or end of the assay
Experimental: as §1

Active human KLK5 [9] = target: T2, Active human KLK5; experiment: SPR, Biacore T200, 25 C; IgG from supernatant captured on anti-human Fc, human KLK5 as analyte (20-0.08 nM), 1:1 model; second run of the chimera; second run of the chimera (start and end of the assay)
Experimental: as §1

Active human KLK5 [10] = target: T2, Active human KLK5; experiment: SPR, Biacore T200, 25 C; mIgG captured on anti-mouse Fc, human KLK5 as analyte (20-0.25 nM), 1:1 model
Experimental: The kinetics of murine IgG molecules binding to human KLK5 were assessed by surface plasmon resonance (Biacore T200, (GE Life Sciences™) at 25° C.
Kinetic parameters were determined using a 1:1 binding model using Biacore T200 Evaluation software.

Active human KLK5 [11] = target: T2, Active human KLK5; experiment: SPR; repeats Table 3 (footnote: as described in example 4 and Table 3)

Binder	Kd (Active human KLK5 [1])	koff (Active human KLK5 [1])	kon (Active human KLK5 [1])	also measured
B1	0.475 nM	0.00091 s⁻¹	1.91e+06 M⁻¹ s⁻¹	
B2	0.331 nM	0.000669 s⁻¹	2.03e+06 M⁻¹ s⁻¹	
B3	0.484 nM	0.000929 s⁻¹	1.92e+06 M⁻¹ s⁻¹	
B4	0.481 nM	0.000811 s⁻¹	1.69e+06 M⁻¹ s⁻¹	
B5	0.541 nM	0.00105 s⁻¹	1.93e+06 M⁻¹ s⁻¹	
B6	0.475 nM	0.000802 s⁻¹	1.69e+06 M⁻¹ s⁻¹	
B7	0.337 nM	0.000687 s⁻¹	2.04e+06 M⁻¹ s⁻¹	
B8	0.546 nM	0.00107 s⁻¹	1.97e+06 M⁻¹ s⁻¹	
B9	0.333 nM	0.000669 s⁻¹	2.01e+06 M⁻¹ s⁻¹	
B10				fold decrease of affinity against 10236gL6gH12 (Active human KLK5 [2]): 4.5 fold; Kd (Active human KLK5 [3]): 1.25 nM; koff (Active human KLK5 [3]): 0.00486 s⁻¹; kon (Active human KLK5 [3]): 3.89e+06 M⁻¹ s⁻¹
B11	0.324 nM	0.00066 s⁻¹	2.04e+06 M⁻¹ s⁻¹	IC50 (read off the curve) (Active cyno KLK5 [4]): ~0.1 nM; Kd (Active human KLK5 [5]): 0.299 nM; Kd (Active human KLK5 [3]): 0.314 nM and 0.283 nM; koff (Active human KLK5 [3]): 0.000711 s⁻¹ and 0.000658 s⁻¹; kon (Active human KLK5 [3]): 2.26e+06 M⁻¹ s⁻¹ and 2.33e+06 M⁻¹ s⁻¹
B12				IC50 (M), inhibition of kallikrein protease activity (fluorogenic peptide substrate) (Active human KLK5 [6]): 1.74e-10 M; IC50 (M), inhibition of kallikrein protease activity (fluorogenic peptide substrate) (Active cyno KLK5 [7]): 2.76e-11 M
B13				Kd (Active human KLK5 [8]): 0.168 nM; koff (Active human KLK5 [8]): 0.000451 s⁻¹; kon (Active human KLK5 [8]): 2.69e+06 M⁻¹ s⁻¹; Kd (Active human KLK5 [9]): 0.152 nM; koff (Active human KLK5 [9]): 0.000409 s⁻¹; kon (Active human KLK5 [9]): 2.7e+06 M⁻¹ s⁻¹
B14				IC50 (M), inhibition of kallikrein protease activity (fluorogenic peptide substrate) (Active human KLK5 [6]): 3.48e-11 M; IC50 (M), inhibition of kallikrein protease activity (fluorogenic peptide substrate) (Active cyno KLK5 [7]): 3.01e-10 M; Kd (Active human KLK5 [10]): 0.16 nM; koff (Active human KLK5 [10]): 0.000184 s⁻¹; kon (Active human KLK5 [10]): 1.14e+06 M⁻¹ s⁻¹
B15				IC50 (M), inhibition of kallikrein protease activity (fluorogenic peptide substrate) (Active human KLK5 [6]): 2.4e-10 M; IC50 (M), inhibition of kallikrein protease activity (fluorogenic peptide substrate) (Active cyno KLK5 [7]): 3.3e-11 M; Kd (Active human KLK5 [11]): 0.172 nM; koff (Active human KLK5 [11]): 0.000517 s⁻¹; kon (Active human KLK5 [11]): 3e+06 M⁻¹ s⁻¹; Kd (Active human KLK5 [10]): 0.172 nM; koff (Active human KLK5 [10]): 0.000517 s⁻¹; kon (Active human KLK5 [10]): 3e+06 M⁻¹ s⁻¹
